Paper PMC9429925

Tests used:
[1] = target: DcuR (UniProt P0AD01); test: size exclusion chromatography with SDS-PAGE of fractions; settings: reference: PASC-Kin without ATP, mixed with DcuR; sites H349
[2] = target: OmpR (Escherichia coli) (UniProt P0AA16); settings: cited from earlier work
[3] = target: FixJ (Rhizobium meliloti) (UniProt P10958); settings: cited from earlier work
FixJ (Rhizobium meliloti), sequence (P10958 whole entry): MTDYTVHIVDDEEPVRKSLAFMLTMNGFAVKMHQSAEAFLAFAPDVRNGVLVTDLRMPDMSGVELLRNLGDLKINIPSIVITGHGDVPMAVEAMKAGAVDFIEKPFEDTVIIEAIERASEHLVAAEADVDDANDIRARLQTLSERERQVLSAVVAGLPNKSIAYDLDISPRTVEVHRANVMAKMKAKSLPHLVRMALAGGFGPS

FixL heme-binding and kinase domains, sequence (P10955 127-505): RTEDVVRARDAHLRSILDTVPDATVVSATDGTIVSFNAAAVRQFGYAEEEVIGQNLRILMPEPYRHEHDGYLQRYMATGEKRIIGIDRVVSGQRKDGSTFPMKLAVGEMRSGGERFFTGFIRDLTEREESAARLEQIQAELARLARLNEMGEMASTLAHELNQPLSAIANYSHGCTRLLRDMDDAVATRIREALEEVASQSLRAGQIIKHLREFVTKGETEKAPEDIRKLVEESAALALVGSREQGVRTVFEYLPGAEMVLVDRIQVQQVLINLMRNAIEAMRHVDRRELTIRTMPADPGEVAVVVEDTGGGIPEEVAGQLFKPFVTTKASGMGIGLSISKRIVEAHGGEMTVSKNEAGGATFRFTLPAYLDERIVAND
EnvZ cytoplasmic portion, sequence (P0AEJ4 180-450): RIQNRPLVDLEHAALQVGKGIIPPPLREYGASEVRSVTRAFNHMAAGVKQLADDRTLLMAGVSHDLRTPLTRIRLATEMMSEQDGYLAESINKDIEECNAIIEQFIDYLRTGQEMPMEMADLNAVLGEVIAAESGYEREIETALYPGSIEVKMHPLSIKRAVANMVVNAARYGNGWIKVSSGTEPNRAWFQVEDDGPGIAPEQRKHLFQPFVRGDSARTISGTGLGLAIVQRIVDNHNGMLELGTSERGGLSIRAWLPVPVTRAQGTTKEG
OmpR (Escherichia coli), sequence (P0AA16 whole entry): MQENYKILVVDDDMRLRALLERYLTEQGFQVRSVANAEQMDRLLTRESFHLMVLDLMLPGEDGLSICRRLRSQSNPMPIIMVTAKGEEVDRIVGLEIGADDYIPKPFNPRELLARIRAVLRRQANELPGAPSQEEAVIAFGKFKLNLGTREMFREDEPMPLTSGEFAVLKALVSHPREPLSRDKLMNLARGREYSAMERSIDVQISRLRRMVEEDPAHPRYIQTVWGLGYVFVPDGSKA

Substance: DcuS (cytoplasmic part: PASC-Kin) PASC-Kin, 212-539 (from UniProt P0AEC8) PASC-Kin pre-incubated with ATP, mixed with DcuR
- other: mol DcuR per mol PASC-Kin in complex peak [1]: stronger; reference approximately 0.11

Substance: EnvZ cytoplasmic portion (from UniProt P0AEJ4)
- Kd [2]: 0.425 µM

Substance: FixL heme-binding and kinase domains (from UniProt P10955)
- Kd [3]: 4 µM
